Experimental data from patent publication US5624659, “Method of treating brain tumors expressing tenascin” (Duke University, dated 1997).

Biological target: tenascin on the tenascin-expressing human glioma cell line U-251 MG-C3 (glutaraldehyde-fixed) (human, UniProt P24821)
Assay: modified Scatchard analysis, 125I-labelled antibody on glutaraldehyde-fixed U-251 MG-C3 cells
Procedure: A modified Scatchard analysis was used to measure the binding affinity of labeled ch81C6. Serially diluted 125I-labeled antibody (200 μl, 1:2 dilution starting from 1600 ng/ml) was incubated in 48-well plates overnight at 37° C. with the antigen-positive human glioma cell line U-251 MG-C3 fixed in glutaraldehyde and the antigen-negative human osteogenic sarcoma cell line 2T. The cells were washed and solubilized with 2N NaOH, and the radioactivity was measured with a gamma counter. The data was analyzed in accordance with known techniques (Y. S. Lee et al., *Cancer Res.* 48, 559 (1988)).
The ch81C6 from high production transfectoma F9C11A5 was purified and further characterized. It was labeled with ^125I using the Iodogen method, and the percentage of immunoreactivity was determined by absorption with D-54 MG xenograft homogenate. The affinity constant was defined by Scatchard analysis using binding assay on a tenascin-expressing cell line U-251 MGC-3 as described above.

- Ka: 1.67e+08 M⁻¹
B1: chimeric 81C6 (mouse/human chimeric antibody, human IgG2, from transfectoma F9C11A5) (antibody, V domains shown)
VH: EVQLQQSGPELVKPGASVKMSCKASGYTFTSYVVHWVKQNPGQGLEWIGYINPFNDGTKYNENFKGKATLTSDRSSSTAYMELSSLTSEESAVYFCARDMGREGFAYWGQGTLVTVSA
VL: DIVMTQAAFSNPVTLGTSASISCRSSKSLLHSNGITYLYWYLQKPGQSPQLLIYQMSNLASGVPDRFSSSGSGTDFTLRISRVEAEDVGVYYCAQNLELPRTFGGGTKLEIK
